Assay results reported in patent US20140127211A1 (Pfizer, published 2014).

B1: ch28-me0131 (Notch3-28-cG1-(C)_me-0#118) (antibody, V domains shown)
VH: EVQLVESGGGLVQPGRSLTLSCVASGFTFRDYGMTWIRQAPGKGLTWVAYISSGSNYIYYAEAVKGRFTISRDNAKNTLYLQMTSLRSEDTALYFCTRRGPFVLDAWGQGASVTVSS
VL: DIQMTQSPSFLSASVGDRVTINCKASQSINRYLHWFQQKLGEAPKLLIYNANGLQTGIPSRFSGSGSGTDFTLTISSLQSEDVATYFCLQHNTWPDTFGAGTKLELK
B2: ch28-vc0101 (Notch3-28-cG1-(C)_mcValCitPABC-#54) (antibody, V domains shown)
VH: B1 VH
VL: B1 VL
B3: ch75-mc0131 (Notch3-75-cG1-(C)_mc-0#118) (antibody, V domains shown)
VH: QVKLLQSGAALVKPGASVKMSCKASGYAFTDYWVTWVKQSHGKSLEWIGEISPNSGGTNFNEKFKGKATLTVDKSTSTAYMELSRLTSEDSAIYYCTRGEIRYNWFAYWGQGTLVTVSS
VL: DIQMTQSPSSLSASVGDRVTITCKASQNVGNNIAWYQQKPGKAPKLLIYYASNRYTGVPSRFSGSGYGTDFTLTISSLQPEDFATYYCQRLYNSPFTFGGGTKVEIK
B4: ch75-me0131 (Notch3-75-cG1-(C)_me-0#118) (antibody, V domains shown)
VH: B3 VH
VL: B3 VL
B5: ch75-mc3377 (Notch3-75-cG1-(C)_mc-#115) (antibody, V domains shown)
VH: B3 VH
VL: B3 VL
B6: ch75-vc6780 (Notch3-75-cG1-(C)_mcValCitPABC-#112) (antibody, V domains shown)
VH: B3 VH
VL: B3 VL

Biological target: full-length human Notch3 expressed on the cell surface (human, UniProt Q9UM47 40-2321)
Test: cell-based or functional assay

Chain of full-length human Notch3 expressed on the cell surface (Q9UM47 40-2321): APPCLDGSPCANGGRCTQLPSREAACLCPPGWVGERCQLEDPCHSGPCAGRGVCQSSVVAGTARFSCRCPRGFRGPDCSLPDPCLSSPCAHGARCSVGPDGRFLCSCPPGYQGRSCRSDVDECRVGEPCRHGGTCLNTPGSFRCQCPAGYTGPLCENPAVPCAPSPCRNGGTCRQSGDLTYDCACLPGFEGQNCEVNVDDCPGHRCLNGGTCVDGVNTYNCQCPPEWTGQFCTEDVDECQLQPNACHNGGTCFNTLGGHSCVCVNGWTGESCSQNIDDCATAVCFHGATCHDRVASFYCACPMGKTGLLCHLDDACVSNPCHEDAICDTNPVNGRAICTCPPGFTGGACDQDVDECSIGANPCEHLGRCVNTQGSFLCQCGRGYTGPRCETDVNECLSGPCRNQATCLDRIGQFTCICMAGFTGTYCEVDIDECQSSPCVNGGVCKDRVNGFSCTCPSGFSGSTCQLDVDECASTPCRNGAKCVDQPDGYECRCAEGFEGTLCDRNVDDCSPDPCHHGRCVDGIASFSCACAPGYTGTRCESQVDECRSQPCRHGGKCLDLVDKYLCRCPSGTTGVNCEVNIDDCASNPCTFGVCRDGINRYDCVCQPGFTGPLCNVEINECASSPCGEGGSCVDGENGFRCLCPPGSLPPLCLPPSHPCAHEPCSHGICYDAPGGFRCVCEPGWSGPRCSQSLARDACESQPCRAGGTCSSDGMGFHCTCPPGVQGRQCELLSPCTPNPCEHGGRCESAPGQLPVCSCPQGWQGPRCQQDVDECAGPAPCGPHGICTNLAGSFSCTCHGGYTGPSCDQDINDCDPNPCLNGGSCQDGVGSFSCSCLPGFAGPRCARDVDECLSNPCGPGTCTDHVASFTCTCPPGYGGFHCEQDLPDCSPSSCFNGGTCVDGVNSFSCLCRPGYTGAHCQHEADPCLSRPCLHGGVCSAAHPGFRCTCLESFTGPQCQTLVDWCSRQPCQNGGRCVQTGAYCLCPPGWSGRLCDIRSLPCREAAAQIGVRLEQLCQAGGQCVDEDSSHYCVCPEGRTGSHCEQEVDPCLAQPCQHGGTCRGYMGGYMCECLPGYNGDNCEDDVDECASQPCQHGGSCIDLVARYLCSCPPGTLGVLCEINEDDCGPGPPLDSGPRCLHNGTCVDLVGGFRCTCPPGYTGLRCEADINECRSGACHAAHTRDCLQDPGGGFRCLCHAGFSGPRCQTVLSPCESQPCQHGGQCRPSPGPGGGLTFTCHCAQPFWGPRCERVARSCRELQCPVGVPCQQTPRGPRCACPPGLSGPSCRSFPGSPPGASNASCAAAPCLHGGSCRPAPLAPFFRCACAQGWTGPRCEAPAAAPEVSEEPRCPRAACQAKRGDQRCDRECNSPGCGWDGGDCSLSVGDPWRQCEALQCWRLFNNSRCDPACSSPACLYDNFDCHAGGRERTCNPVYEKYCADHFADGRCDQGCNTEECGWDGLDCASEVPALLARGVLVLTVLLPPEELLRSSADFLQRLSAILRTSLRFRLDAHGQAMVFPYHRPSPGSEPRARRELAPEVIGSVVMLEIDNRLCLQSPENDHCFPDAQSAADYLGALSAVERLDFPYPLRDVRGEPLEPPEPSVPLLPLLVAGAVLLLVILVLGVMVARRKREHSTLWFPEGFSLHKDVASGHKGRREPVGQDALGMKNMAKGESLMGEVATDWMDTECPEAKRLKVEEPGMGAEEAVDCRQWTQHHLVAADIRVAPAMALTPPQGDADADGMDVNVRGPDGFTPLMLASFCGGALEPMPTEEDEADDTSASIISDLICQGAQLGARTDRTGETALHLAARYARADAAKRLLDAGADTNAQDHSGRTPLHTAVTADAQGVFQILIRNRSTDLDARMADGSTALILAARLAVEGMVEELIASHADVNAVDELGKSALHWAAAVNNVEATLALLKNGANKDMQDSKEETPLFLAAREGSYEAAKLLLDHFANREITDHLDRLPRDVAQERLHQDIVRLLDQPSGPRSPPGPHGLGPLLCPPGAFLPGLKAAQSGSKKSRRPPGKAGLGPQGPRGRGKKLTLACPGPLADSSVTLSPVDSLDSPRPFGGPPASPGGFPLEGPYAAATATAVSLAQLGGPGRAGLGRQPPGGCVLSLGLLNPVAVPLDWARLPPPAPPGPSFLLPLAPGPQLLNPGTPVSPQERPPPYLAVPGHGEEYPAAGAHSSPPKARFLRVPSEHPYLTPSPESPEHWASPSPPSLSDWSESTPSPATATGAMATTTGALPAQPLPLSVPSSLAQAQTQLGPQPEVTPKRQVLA

Binder	IC50 of cytotoxicity (MTS viability), OVCAR3 cells [ng Ab/mL]	IC50 of cytotoxicity (MTS viability), MDA-MB-468 cells [ng Ab/mL]	other results
B1			IC50 of cytotoxicity (MTS viability), HCC2429 cells: 30 ng Ab/mL
B2	635		
B3	289		IC50 of cytotoxicity (MTS viability), U2OS/hNotch3 cells: 19 ng Ab/mL
B4		259	
B5		560	
B6	922		
